Broadly, the EC50 is the concentration at which the effect is half-maximal. A word on the Kd: it is the concentration at which binding is half-saturated.

The source of these data is patent US20260139067A1 (BETH ISRAEL DEACONESS MEDICAL CENTER, published 2026).

Test [1] addresses T1, CDCP1 expressed on the surface of human cells (PC3, H1299, H2009 and others) (human, UniProt Q9H5V8 30-836).
T1 construct: Endogenous CDCP1 of human cell lines; also called CDCP1 antigen expressed on PC3 cells; CDCP1 expressing cells
Put plainly: flow cytometry on H1299 cells (NSCLC), anti-human IgG Fc R-PE detection. On the procedure: (§1) Binding was evaluated on three human cancer cell lines, PC3 (prostate cancer), H1299 (Non-small cell lung cancer), and H2009 (lung adenocarcinoma). To accomplish this, adherent cells were first dissociated with Cell Dissociation Buffer (Life Technologies #13150-016), pelleted by centrifugation, and resuspended by FACS buffer (PBS-CMF, 3% FBS, 0.1% weight/volume (w/v) sodium azide). […] Following a thirty-minute incubation on ice in dark, the cells were washed twice, combined with eFluor 660 Fixable Viability Dye (eBioscience #65-0864-18), and fixed (BD Cytofix, BD Biosciences #554655). Stained cells were acquired on a LSR Fortessa instrument using BD FACSDiva Software. Background subtracted gMFI of viable cells was determined using FlowJo software and plotted using Graphpad Prism software to generate EC₅₀ s (FIGS. 26A and 26B).
Background: A flow cytometer gives signals particle by particle.

Test [2] addresses T1, CDCP1 expressed on the surface of human …. The test is described as follows: flow cytometry on PC3 cells (prostate cancer), anti-human IgG Fc R-PE detection. As to the method:
as §1

In test [3] the target is T2, recombinant human CDCP1 extracellular domain (CDCP1-ECD) (human, UniProt Q9H5V8 30-663).
T2 construct: Expressed in HEK293 and chemically biotinylated for the phage selection; also called human CDCP1 ECD; human CDCP1-ECD
The test is described as follows: SPR (Biacore T200), antibody captured on anti-human IgG, CDCP1-ECD injected. On the procedure: (§2) Specifically, the binding kinetics of anti-CDCP1 antibodies against recombinant human, cynomologus monkey and mouse CDCP1-ECD were determined using surface plasmon resonance (SPR) and a Biacore T200 instrument (GE Healthcare). An anti-human IgG antibody was amine coupled onto a CM5 carboxymethylated dextran sensor chip surface (GE Healthcare), using the manufacturer's recommendations, to densities of approximately 10,000-13,000 response units (RU). Each anti-CDCP1 antibody was diluted to 0.5 μg/mL in 10 mM HEPES pH 7.4, 0.15 M NaCl, 3 mM EDTA, 0.05% P-20 (HBS-EP+) and captured for about 20-23 seconds at a flow rate of 10 μL/min. […] The sensorchip surface was regenerated with three 30 second pulses of 3M MgCl₂ at a flow rate of 50 μL/minute. All injections used HBS-EP+ as both the running and sample buffer and were performed at 25° C. with a data collection rate of 1 Hz. Sensorgrams were double referenced by using both a control surface and buffer injections. Rate constants were determined by fitting the data to a 1:1 model with Biacore T200 evaluation software v3.0 and the equation KD=kd/kₐ.
A general note: In SPR one partner is held on a chip, and binding of the other changes the refractive index at the surface.

Test [4] has as its target T3, recombinant cynomolgus monkey CDCP1 extracellular domain (cynomolgus monkey, UniProt A0A2K5VLA8 30-663).
T3 construct: range 30-663; also called cyno CDCP1 ECD; cynomolgus monkey CDCP1-ECD
The test is described as above. As to the method: as §2

Test [5] concerns the target T1, CDCP1 expressed on the surface of human …. Put plainly: flow cytometry on H2009 cells (lung adenocarcinoma), anti-human IgG Fc R-PE detection. On the procedure: as §1
The target of test [6] is T2, recombinant human CDCP1 extracellular …. Put plainly: SPR (Biacore T200), antibody captured on anti-human IgG, CDCP1-ECD injected; experiment 2. As to the method:
as §2

In test [7] the target is T3, recombinant cynomolgus monkey CDCP1 …. Described as above. On the procedure: as §2
Test [8] addresses T1, CDCP1 expressed on the surface of human …. The test is described as follows: competition FACS on PC3 cells; competitor: biotinylated CP13E10 reporter at 1.5 µg/mL, streptavidin-PE detection. On the procedure:
For this competition FACS assay procedure, PC3 cells were detached from flasks using cell dissociation buffer (Gibco, catalog number 13151-014), washed once with ice-cold FACS buffer (PBS-CMF pH 7.2+3% FBS+0.1% sodium azide) and 2.5×10⁵ cells in 50 μl buffer were added to each well in 96-well V-bottom plates (Corning catalog number 3894). […] Next, the cells were washed twice with FACS buffer. Streptavidin-PE (Invitrogen/eBioscience catalog number 12-4317-87) diluted 1:200 was added and incubated for 30 minutes at room temperature. The cells were washed twice with FACS buffer and were fixed on ice for 15 minutes by adding 100 μl of BD Cytofix (BD Biosciences catalog number 554655) to each well. The cells were washed twice with FACS buffer.

The target is the same in test [9]. Put plainly: competition FACS on PC3 cells; competitor (reporter) biotinylated CP13E10.
The target of test [10] is T2, recombinant human CDCP1 extracellular …. Put plainly: SPR, Biacore T200. On the procedure:
as §2

Test [11] deals with T3, recombinant cynomolgus monkey CDCP1 …. Put plainly: SPR, Biacore T200. On the procedure:
as §2

For test [12], the target named is T2, recombinant human CDCP1 extracellular …. Put plainly: competition ELISA of Example 7 on CDCP1-ECD (biotinylated CP13E10-54HC-89LC reporter as described there; the reporter is not named on the sheet). In general terms: In an ELISA, binding on a coated surface is turned into a signal by an enzyme label.
Description: The CDCP1-ECD protein was diluted to 1 μg/ml in PBS-CMF pH 7.2, 100 μl was added to each well of the plate, and the plate was incubated overnight at 4° C. The contents of the plate were discarded and then the plate was blocked with PBS-CMF pH7.2+0.02% casein for 3 hours at room temperature. […] The wells were washed four times with PBS-CMF pH7.2+0.03% tween-20. Streptavidin-HRP (catalog #7100-05, Southern Biotech, (Birmingham, Alabama) diluted 1:10,000 was added and incubated for 30 minutes at room temperature. The wells were washed four times with PBS-CMF pH 7.2+0.03% tween-20 and then TMB (BioFx) was added. The reaction developed for 5 to 10 minutes and was then quenched with 0.18 N H₂SO₄. The absorbance at 450 nm was determined and the results are shown in FIG. 7.
Test [13] has as its target T1, CDCP1 expressed on the surface of human …. The test is described as follows: immunoprecipitation: antibody 24 (5 µg/ml) added to intact PC3 cells (80 min, 4 °C), Western blot.
Test [14] has the same target. The test is described as follows: immunoprecipitation: antibody 76 (20 ng/ml) added to intact PC3 cells (80 min, 4 °C), Western blot.

T3 sequence (A0A2K5VLA8 entry or part of it): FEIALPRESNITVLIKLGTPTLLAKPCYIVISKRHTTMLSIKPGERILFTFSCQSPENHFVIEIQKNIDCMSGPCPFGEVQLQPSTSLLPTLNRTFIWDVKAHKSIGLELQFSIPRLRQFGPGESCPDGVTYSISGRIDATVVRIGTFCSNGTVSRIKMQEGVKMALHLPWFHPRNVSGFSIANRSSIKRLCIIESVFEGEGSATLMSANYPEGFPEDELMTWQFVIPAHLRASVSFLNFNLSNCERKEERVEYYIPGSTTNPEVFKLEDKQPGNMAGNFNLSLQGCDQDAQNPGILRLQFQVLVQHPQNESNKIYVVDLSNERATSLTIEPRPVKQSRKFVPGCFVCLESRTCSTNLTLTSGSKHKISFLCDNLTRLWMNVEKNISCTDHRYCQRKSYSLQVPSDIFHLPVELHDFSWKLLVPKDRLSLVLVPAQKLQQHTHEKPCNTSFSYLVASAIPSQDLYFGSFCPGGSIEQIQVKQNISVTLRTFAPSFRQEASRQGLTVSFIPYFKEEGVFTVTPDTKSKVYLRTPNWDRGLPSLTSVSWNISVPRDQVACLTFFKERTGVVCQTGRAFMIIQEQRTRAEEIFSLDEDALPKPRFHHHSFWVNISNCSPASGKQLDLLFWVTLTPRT

B1: CP13E10-54HC-89LC (antibody, human IgG1, kappa, V domains shown)
VH: EVQLVQSGAEVKKPGASVKVSCKASGYTFTSYYMHWVRQAPGQGLEWMGIINPSGGSTSYAQKFQGRVTMTRDTSTSTVYMELSSLRSEDTAVYYCARDGELRHFDHLLDYHYYMDVWGQGTTVTVSS
VL: EIVLTQSPATLSLSPGERATLSCRASQSVGSYLAWYQQRPGQAPRLLIYDASNRATGIPARFSGSGSGTDFTLTISSLEPEDFAVYYCQQRAQEFTFGQGTKVEIKR
notes: Human IgG1, kappa; Alexa Fluor 647 conjugated in the internalization assay; also called CP13E10-54VH-89VL
Consider B1, for which the concentration for a half-maximal effect (EC50) in [1] turned out to be 0.73 nM; in test [2] it was 1.69 nM; in [5] it was 0.77 nM. Also, the Kd in test [3] came out at 52.9 nM; in test [4], 79.9 nM; in test [6] it was 42 nM; in test [7], 63.4 nM.

B2: CP13E10-54 variant (antibody, human IgG1, kappa, V domains shown)
VH: EVQLVQSGAEVKKPGASVKVSCKASGYTFTSYYMHWVRQAPGQGLEWMGIINPSGGSTSYAQKFQGRVTMTRDTSTSTVYMELSSLRSEDTAVYYCARDGELRHFDHLLDYHYYMDVWGQGTTVTVSS
VL: EIVLTQSPATLSLSPGERATLSCRASQSVGSYLAWYQQRPGQAPRLLIYDASNRATGIPARFSGSGSGTDFTLTISSLEPEDFAVYYCQQRANVFTFGQGTKVEIKR
Turning to B2, the “IC50 (read off the curve)” value in [8] is approximately 9 nM.

B3: CP13E10-34 variant (antibody, V domains shown)
VH: EVQLVQSGAEVKKPGASVKVSCKASGYTFTSYYMHWVRQAPGQGLEWMGIINPSGGSTSYAQKFQGRVTMTRDTSTSTVYMELSSLRSEDTAVYYCARDGVLRHFDHLLDYHYYMDVWGKGTTVTVSS
VL: EIVLTQSPATLSLSPGERATLSCRASQSVGSYLAWYQQRPGQAPRLLIYDASNRATGIPARFSGSGSGTDFTLTISSLEPEDFAVYYCQQRANVFTFGQGTKVEIKR
For B3, the “fold lower binding relative to parental CP13E10” value in test [9] was more than 7 fold. Besides, the Kd in test [3] was found to be 607 nM.

B4: CP13E10-291 (antibody, human IgG1, kappa, V domains shown)
VH: EVQLVQSGAEVKKPGASVKVSCKASGYTFTSYYMHWVRQAPGQGLEWMGIINPSGGSTSYAQKFQGRVTMTRDTSTSTVYMELSSLRSEDTAVYYCARDGELRHFDQVYNYHYYMDVWGQGTTVTVSS
VL: EIVLTQSPATLSLSPGERATLSCRASQSVGSYLAWYQQRPGQAPRLLIYDASNRATGIPARFSGSGSGTDFTLTISSLEPEDFAVYYCQQRANVFTFGQGTKVEIKR
notes: Human IgG1, kappa
As for B4, in test [10], the “fold increase in affinity relative to CP13E10-34” value was more than 200 fold. Besides, in [11], the “fold increase in binding relative to CP13E10-WT” value is more than 70 fold. In addition, the results for the equilibrium dissociation constant (Kd) in test [3] and in test [4] were 2.9 nM and 3.12 nM, respectively.

B5: CP13E10 (antibody, human IgG1, kappa, V domains shown)
VH: EVQLVQSGAEVKKPGASVKVSCKASGYTFTSYYMHWVRQAPGQGLEWMGIINPSGGSTSYAQKFQGRVTMTRDTSTSTVYMELSSLRSEDTAVYYCARDGVLRYFDWLLDYYYYMDVWGKGTTVTVSS
VL: EIVLTQSPATLSLSPGERATLSCRASQSVGSYLAWYQQRPGQAPRLLIYDASNRATGIPARFSGSGSGTDFTLTISSLEPEDFAVYYCQQRANVFTFGQGTKVEIKR
notes: Human IgG1, kappa; Heavy chain can be prepared with or without the C-terminal lysine; also called CP13E10-WT; parental CP13E10 antibody
For the molecule B5, the results for the Kd in test [3] and in test [4] were 219 nM and 232 nM, respectively. Moreover, the “IC50 (read off the curve)” value in test [8] is approximately 7 nM.

B6: CP13E10-54HCv13-89LCv1 (antibody, human IgG1, kappa, V domains shown)
VH: EVQLVQSGAEVKKPGASVKVSCKASGYTFTSYYMHWVRQAPGQGLEWMGIINPSGGSTSYAQKFQGRVTMTRDTSTSTVYMELSSLRSEDTAVYYCARDAELRHFDHLLDYHYYMDVWGQGTTVTVSS
VL: EIVMTQSPATLSLSPGERATLSCRASQSVGSYLAWYQQKPGQAPRLLIYDASNRATGIPARFSGSGSGTDFTLTISSLQPEDFAVYYCQQRAQEFTFGQGTKVEIKR
Consider B6, for which the “IC50 (read off the curve)” value in test [12] is approximately 5 nM.

B7: antibody 24 (antibody, human IgG1, kappa, V domains shown)
VH: QVQLVESGGGVVQPGRSLRLSCAASGFTFSSYGMHWVRQAPGKGLEWVAVISYDGSNKYYADSVKGRFTISRDNSKNTLYLQMNSLRAEDTAVYYCARGVGLPDIWGQGTMVTVSS
VL: EIVMTQSPDTLSLSPGERATLSCRASQKIYYSYLAWYQQKPGQAPRLLISGASTRASDISDRFSGGGSGTDFTLTINSLESEDAAVYYCQQYDSLPVTFGRGTKLEIKR
notes: Human IgG1, kappa
B7: the binding result in test [13] was “binds”.

B8: antibody 76 (antibody, human IgG1, lambda, V domains shown)
VH: QVQLVQSGAEVKKPGSSVKVSCKASGGTFSSYAISWVRQAPGQGLEWMGGIIPIFGTANYAQKFQGRVTITADKSTSTAYMELSSLRSEDTAVYYCARDPTYFDWTRRGYYYMDVWGKGTTVTVSS
VL: SYELTQPPSVSVSPGQTARITCSGDALPKKYAFWYQQKSGQAPVLVIYEDSKRPSGIPEKFSGSSSGTMATLTISGAQVEDEADYYCYSTDSSDNPRGVFGGGTKLTVLG
notes: Human IgG1, lambda
As for B8, in test [14], the binding result is “binds”.
